According to doi:10.1101/2025.11.15.688601, “A multiplexed approach for genetic screening of human cells by electron microscopy uncovers a critical effector of mitochondrial cristae shape” (bioRxiv, 2025):

Biological target: the molecule itself
Test: SEC-MALS; about 10 mg/ml applied to Superdex 200 Increase 10/300 in PBS; DAWN HELEOS and Optilab T-rEX detectors

B1: Recombinant MISHA/FAM136A (sample of the SEC-MALS analysis) (natural protein)
chain: not shown
notes: human FAM136A/MISHA, Uniprot Q96C01, printed as 138 amino acids (the whole entry); tag removed before the assay; Applied at about 10 mg/ml; also called Mitochondrial-IMS membrane-SHApe-impacting protein; source: E. coli SHuffle, purified; tag cleaved in both
B1 was tested, and the “stoichiometry N” value was 2.
